Measurements from publication PMC2877039 (Developmental cell, 2010).

T1: His6-tagged full-length Sec15 protein (yeast, UniProt P22224 1-910)
T1 sequence (looked up): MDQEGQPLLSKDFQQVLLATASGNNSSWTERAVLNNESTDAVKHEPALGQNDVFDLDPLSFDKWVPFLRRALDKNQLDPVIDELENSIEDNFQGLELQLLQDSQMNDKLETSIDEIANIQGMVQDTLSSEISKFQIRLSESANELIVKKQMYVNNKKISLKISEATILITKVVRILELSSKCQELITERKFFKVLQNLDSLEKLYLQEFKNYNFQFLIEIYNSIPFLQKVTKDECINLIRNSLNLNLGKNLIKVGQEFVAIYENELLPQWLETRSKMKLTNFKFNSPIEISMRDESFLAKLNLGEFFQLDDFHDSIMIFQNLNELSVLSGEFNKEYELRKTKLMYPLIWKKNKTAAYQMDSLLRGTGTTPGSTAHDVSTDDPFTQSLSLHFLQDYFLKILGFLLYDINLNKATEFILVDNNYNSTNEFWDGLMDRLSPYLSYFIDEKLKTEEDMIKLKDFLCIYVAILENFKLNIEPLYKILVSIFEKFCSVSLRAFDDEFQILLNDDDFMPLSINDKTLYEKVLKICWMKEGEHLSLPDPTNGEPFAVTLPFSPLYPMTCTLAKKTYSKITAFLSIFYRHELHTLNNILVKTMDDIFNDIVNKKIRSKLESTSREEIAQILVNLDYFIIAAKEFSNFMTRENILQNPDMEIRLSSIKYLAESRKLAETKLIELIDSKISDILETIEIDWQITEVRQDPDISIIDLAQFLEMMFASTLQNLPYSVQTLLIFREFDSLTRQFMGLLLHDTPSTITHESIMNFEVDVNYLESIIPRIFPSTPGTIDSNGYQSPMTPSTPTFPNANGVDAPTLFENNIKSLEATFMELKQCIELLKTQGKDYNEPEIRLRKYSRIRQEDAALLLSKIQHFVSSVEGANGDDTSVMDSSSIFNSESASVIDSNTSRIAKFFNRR

B1: GST-Sec2p (wild type) (natural protein, yeast, UniProt P17065 1-759, looked up)
chain: MDASEEAKRVSIQVTSLSTQLIESVDKQSHLEEQLNKSLKTIASQKAAIENYNQLKEDYNTLKRELSDRDDEVKRLREDIAKENELRTKAEEEADKLNKEVEDLTASLFDEANNMVADARKEKYAIEILNKRLTEQLREKDTLLDTLTLQLKNLKKVMHSLDNESTVTNNSNRYSTILSDSATSSSTSLNKVPTSYSLASQDIYSGIVYSPSISSIRYDISLYNEFLKFVAALPRCENIKATSTESKLIRRLVNDEIQPILKIDNASGIGWLVKKTLLSLIIDGLVVVEPLSGVNATYQIGYNSSSPAKQATSNMPKMFKFPLDSPPVAVHAACSFCGESRDDIIEHARMYILKTLHKTDDGKEQVTNTYPLCHWCLLKLRQTCEIFAFLRSLKVGAWHLEKLTTQNITKEDLEKFSEVTKHTKRDGRVSSQDKKTKRLSFMAGLGINSSTKNKPKMEIFSSETNAKPGQPTTNIQRAWLQLCKLRCILHWTHIGIWAVDDSISSKIGPLVEDDSDEDQNDAISVRLQDKALWKQDAKRPFSSSSAEESQKSDAFDFESGDMENEITGESSSDESSSDGSSTDNSTADSSSEDESSLADSTTSSADSSSPESIDNGEGDDTVTKDDKSSIKSANNNEENSDCGDKKGRSIIKKKAPQRKIQKKKLLQDLDDLEEQFREESAIDQTEFENAESNVKQNISSKRASSGDENSKKDNNEKTLKTNLTIGDKTQEQIGENSPSSGLHASSSNDDNFDDAQEQQ
B2: Sec15p C-terminal fragment (a.a. 559–910) (domain or fragment, yeast, UniProt P22224 559-910, looked up)
chain: MTCTLAKKTYSKITAFLSIFYRHELHTLNNILVKTMDDIFNDIVNKKIRSKLESTSREEIAQILVNLDYFIIAAKEFSNFMTRENILQNPDMEIRLSSIKYLAESRKLAETKLIELIDSKISDILETIEIDWQITEVRQDPDISIIDLAQFLEMMFASTLQNLPYSVQTLLIFREFDSLTRQFMGLLLHDTPSTITHESIMNFEVDVNYLESIIPRIFPSTPGTIDSNGYQSPMTPSTPTFPNANGVDAPTLFENNIKSLEATFMELKQCIELLKTQGKDYNEPEIRLRKYSRIRQEDAALLLSKIQHFVSSVEGANGDDTSVMDSSSIFNSESASVIDSNTSRIAKFFNRR

Tests used:
[1] = target: T1, His6-tagged full-length Sec15 protein; assay: pull-down
[2] = target: B1; assay: pull-down

Row | Binder | binding result [1] | binding result [2]
1 | B1 | binds | 
2 | B2 |  | binds
